# Experimental data reported in the supplement of paper PMC10567573.
# B1: SNX8 (parent)
# chain: LHQETQLIHVYLPLTSHILRAFVN
# B2: WSB1 (parent)
# chain: FSHDGLHVASLADDKMVRFWRIDE
# Variants of: B1
# Assay: protein stability index of a GFP-peptide fusion (GPS, HEK-293T) (PSI 1-6); higher = more stable
# Settings: c terminus: a fixed tail appended
# 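Further: lentivirally expressed fusions sorted by FACS into six bins by GFP to DsRed ratio, PSI derived from sequencing read proportions per bin multiplied by bin number.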
row,Variant,protein stability index
1,LHQETQLIHVYLPLTSHILRAVVN [F22V],2.75
2,LHQETQLIHVYLPLTSHILRAYVN [F22Y],4.5
3,LHQETQLIHVYLPLTSHILRAFVV [N24V],3.76
4,LHQETQLIHVYLPLTSHILRAFVS [N24S],2.59
5,LHQETQLIHVYLPLTSHILRAFVD [N24D],2.94
6,LHQETQLIHVYLPLTSHILRAFVF [N24F],3.69
7,LHQETQLIHVYLPLTSHILRAFVH [N24H],5.51
8,LHQETQLIHVYLPLTSHILRAFVK [N24K],2.06
9,LHQETQLIHVYLPLTSHILRAFVY [N24Y],2.88
10,LHQETQLIHVYLPLTSHILRAFVL [N24L],2.37
11,LHQETQLIHVYLPLTSHILRAFVT [N24T],2.16
12,LHQETQLIHVYLPLTSHILRAFVA [N24A],2.76
13,LHQETQLIHVYLPLTSHILRAFVQ [N24Q],2.93
14,LHQETQLIHVYLPLTSHILRAFAN [V23A],3.31
15,LHQETQLIHVYLPLTSHILRAFEN [V23E],2.79
16,LHQETQLIHVYLPLTSHILRAFYN [V23Y],3.02
17,LHQETQLIHVYLPLTSHILRAFDN [V23D],2.39
18,LHQETQLIHVYLPLTSHILRAFWN [V23W],3.24
19,LHQETQLIHVYLPLTSHILRAFSN [V23S],2
20,LHQETQLIHVYLPLTSHILRAFMN [V23M],2.4
21,LHQETQLIHVYLPLTSHILRAFLN [V23L],2.22
22,LHQETQLIHVYLPLTSHILRAFQN [V23Q],2.27
23,LHQETQLIHVYLPLTSHILRAFIN [V23I],1.96
24,LHQETQLIHVYLPLTSHILRAFTN [V23T],3.16
25,LHQETQLIHVYLPLTSHILRAFPN [V23P],2.03
26,LHQETQLIHVYLPLTSHILRAFFN [V23F],2.14
27,LHQETQLIHVYLPLTSHILRAFHN [V23H],2.58

# Variants of: B2
# Assay: as above
# Settings: c terminus: a fixed tail appended
row,Variant,protein stability index
1,FSHDGLHVASLADDKMVRFWRKDE [I22K],2.66
2,FSHDGLHVASLADDKMVRFWRNDE [I22N],2.09
3,FSHDGLHVASLADDKMVRFWRGDE [I22G],3.54
4,FSHDGLHVASLADDKMVRFWRQDE [I22Q],2.45
5,FSHDGLHVASLADDKMVRFWRMDE [I22M],2.16
6,FSHDGLHVASLADDKMVRFWRFDE [I22F],1.63
7,FSHDGLHVASLADDKMVRFWRIDS [E24S],1.61
8,FSHDGLHVASLADDKMVRFWRIDP [E24P],1.86
9,FSHDGLHVASLADDKMVRFWRIDI [E24I],2.28
10,FSHDGLHVASLADDKMVRFWRIDK [E24K],1.84
11,FSHDGLHVASLADDKMVRFWRIDN [E24N],3
12,FSHDGLHVASLADDKMVRFWRIDL [E24L],2.85
13,FSHDGLHVASLAVDKMVRFWRIDE [D13V],2.03
14,FSHDGLHVASLAMDKMVRFWRIDE [D13M],1.22
15,FSHDGLHVASLAKDKMVRFWRIDE [D13K],1.88
16,FSHDGLHVASLAGDKMVRFWRIDE [D13G],1.04
17,FSHDGLHVASLAIDKMVRFWRIDE [D13I],1.21
18,FSHDGLHVASLAPDKMVRFWRIDE [D13P],1.56
19,FGHDGLHVASLADDKMVRFWRIDE [S2G],1.15
20,FMHDGLHVASLADDKMVRFWRIDE [S2M],3.12
21,FDHDGLHVASLADDKMVRFWRIDE [S2D],3.79
22,FIHDGLHVASLADDKMVRFWRIDE [S2I],2.46
23,FRHDGLHVASLADDKMVRFWRIDE [S2R],2.61

row,Variant,protein stability index
1,FVHDGLHVASLADDKMVRFWRIDE [S2V],2.64
2,FEHDGLHVASLADDKMVRFWRIDE [S2E],2.34
3,FSHDGAHVASLADDKMVRFWRIDE [L6A],1.98
4,FSHDGDHVASLADDKMVRFWRIDE [L6D],2.07
5,FSHDGIHVASLADDKMVRFWRIDE [L6I],2.15
6,FSHDGCHVASLADDKMVRFWRIDE [L6C],1.55
7,FSHDGPHVASLADDKMVRFWRIDE [L6P],1.63
8,FSHDGFHVASLADDKMVRFWRIDE [L6F],2.43
9,FSHDGLHVASLADKKMVRFWRIDE [D14K],1.96
10,FSHDGLHVASLADRKMVRFWRIDE [D14R],1.95
11,FSHDGLHVASLADCKMVRFWRIDE [D14C],2.36
12,FSHDGLHVASLADYKMVRFWRIDE [D14Y],1.52
13,FSHDGLHVASLADHKMVRFWRIDE [D14H],2.2
14,FSHDGLHVASLADTKMVRFWRIDE [D14T],1.83
15,FSHDGLHVASLADQKMVRFWRIDE [D14Q],1.78
16,FSHHGLHVASLADDKMVRFWRIDE [D4H],1.43
17,FSHNGLHVASLADDKMVRFWRIDE [D4N],2
18,FSHYGLHVASLADDKMVRFWRIDE [D4Y],1.65
19,FSHCGLHVASLADDKMVRFWRIDE [D4C],1.73
20,FSHEGLHVASLADDKMVRFWRIDE [D4E],1.94
21,FSHDGLHAASLADDKMVRFWRIDE [V8A],1.94
22,FSHDGLHWASLADDKMVRFWRIDE [V8W],2.92
23,FSHDGLHDASLADDKMVRFWRIDE [V8D],1.88

row,Variant,protein stability index
1,FSHDGLHSASLADDKMVRFWRIDE [V8S],2.41
2,FSHDGLHIASLADDKMVRFWRIDE [V8I],1.92
3,FSHDGLHMASLADDKMVRFWRIDE [V8M],1.03
4,FSHDALHVASLADDKMVRFWRIDE [G5A],1.92
5,FSHDILHVASLADDKMVRFWRIDE [G5I],1.89
6,FSHDNLHVASLADDKMVRFWRIDE [G5N],3.01
7,FSHDRLHVASLADDKMVRFWRIDE [G5R],2.07
8,FSHDPLHVASLADDKMVRFWRIDE [G5P],1.81
9,FSHDKLHVASLADDKMVRFWRIDE [G5K],1.96
10,FSHDVLHVASLADDKMVRFWRIDE [G5V],2.61
11,FSHDMLHVASLADDKMVRFWRIDE [G5M],3.4
12,CSHDGLHVASLADDKMVRFWRIDE [F1C],2.99
13,LSHDGLHVASLADDKMVRFWRIDE [F1L],3.14
14,KSHDGLHVASLADDKMVRFWRIDE [F1K],3.4
15,PSHDGLHVASLADDKMVRFWRIDE [F1P],3.52
16,ESHDGLHVASLADDKMVRFWRIDE [F1E],4.03
17,ASHDGLHVASLADDKMVRFWRIDE [F1A],2.85
18,FSHDGLHVASLADDKMDRFWRIDE [V17D],1.96
19,FSHDGLHVASLADDKMLRFWRIDE [V17L],1.27
20,FSHDGLHVASLADDKMPRFWRIDE [V17P],2.42
21,FSHDGLHVASLADDKMFRFWRIDE [V17F],1.58
